This note sets out measurements from US11648277B2, “Combination therapy with gold controlled transgenes” (Chimera Bioengineering, Inc., priority 2019, dated 2023).

The subject of one data set is CD4+ T-cells. The data set can be described thus: Luciferase-RDE bioluminescence in anti-CD19 CAR T-cells, resting vs Raji co-culture. Conditions: for increase in bioluminescence with CAR stimulation: Raji co-culture 24 h vs resting. Type of data set: cell-based. The text has this:
Combinations of these inserts/cassettes shown in FIG. 3 were placed in the similar lenti virus constructs. The anti-CD19 CAR cassette and the insert with the luciferase-RDE are transcribed in opposite directions, and the control regions for each are located in between the two insert/cassettes. The control region for the Luciferase-RDE insert and Luciferase-3′-UTR were either a MinP promoter or an NFAT promoter. The control region of the anti-CD19 CAR cassette was the MND promoter, and CD4+ T-cells were transduced with the bicistronic construct.
The transduced T cells were allowed to return to resting state, and then were tested after stimulation as follows. For the ‘no stimulation’ set, transduced T-cells were incubated for 24 h alone in medium. For the ‘Raji co-culture’ set CD19+ Raji B cells were incubated with the transduced T cells for 24 h. At 24 h, the T cells were stained for CD25 and CD69, which are activation markers, and subject to flow cytometry to measure these markers and luciferase expression in the T cells.

A further data set concerns T-cells. The data set can be described thus: Removal of microRNA binding sites from an RDE, expression from constructs. In kind it is cell-based. The following applies: MIR186 micro-RNA sites removed from the 3′-UTR of IL-2. An excerpt:
The AU-rich element from the 3′-UTR of IL-2 has mir-181 and mir 186 microRNA binding sites. Different combinations of the microRNA sites were removed from the 3′-UTR of IL-2. When the MIR186 micro-RNA sites were removed from the 3′-UTR of IL-2 the dynamic range of expression from constructs with this UTR increased 50 fold. The modified IL-2, 3′-UTR replaces CTT in the sequence with GAA and is shown below (the new GAA is underlined in the sequence):
Different combinations of the micro-RNA sites were removed from the 3′UTR of IFNg and tested for increased expression. When the mir125 micro-RNA sites were removed from the 3′-UTR of IFN-γ the expression rate from constructs with this UTR is increased.
Expression of GFP in T-cells, transfected with the RDE-GFP plus the microRNA sites, is compared to expression of GFP in T-cells with the RDE-GFP in which the microRNA sites have been removed, following activation with CD3/CD28 beads for 24 hours. The removal of the microRNA sites increased expression of the GFP by a factor of between 2-5 after 24 hours, relative to the cells with microRNA sites.

B1: RDE3: 3′-UTR of IL-2 modified to remove the mir186 sites (SEQ ID NO: 22) (nucleic acid, listed as Homo sapiens)
DNA: TAATTAAGTGCTTCCCACTTAAAACATATCAGGCCTTCTATTTATTTAAATATTTAAATTTTATATTTATTGTTGAATGTATGGTTTGCTACCTATTGTAACTATTATTCTTAATCTTAAAACTATAAATATGGATCTTTTATGATTGAATTTGTAAGCCCTAGGGGCTCTAAAATGGTTTCACTTATTTATCCCAAAATATTTATTATTATGTTGAATGTTAAATATAGTATCTATGTAGATTGGTTAGTAAAACTATTTAATAAATTTGATAAATATAAA
For the molecule B1, the “increase in bioluminescence with CAR stimulation” value in the data set on CD4+ T-cells (MinP promoter) is given as 1.4 fold; in the data set with CD4+ T-cells (NFAT promoter), 1.3 fold. Also, the “amount of bioluminescence, rank among RDE constructs” value in the data set on CD4+ T-cells (with either promoter) is on record as “highest amount of bioluminescence”. The “increase of dynamic range of expression” value in the data set on T-cells was 50 fold.
